Like-named read-outs stand apart in the source and are kept apart here.
Experiments:
[1] = target: T1, SARS-CoV-2 receptor binding domain (RBD) (SARS-CoV-2, UniProt P0DTC2 319-527); assay: BLI (Octet Red96e), IgG on AHC biosensors, RBD in solution
[2] = target: SARS-CoV-2-Spike (wildtype, on virus) (SARS-CoV-2, UniProt P0DTC2 14-1273); assay: cell-based or functional assay
[3] = target: T1, SARS-CoV-2 receptor binding domain (RBD); assay: BLI (Octet Red96e), IgG1 on AHC biosensors, RBD in solution
[4] = target: T1, SARS-CoV-2 receptor binding domain (RBD)
[5] = target: T1, SARS-CoV-2 receptor binding domain (RBD); assay: BLI (Octet), IgG on anti-human Fc biosensors, RBD in solution
[6] = target: T1, SARS-CoV-2 receptor binding domain (RBD); assay: DELFIA, RBD coated on plate, IgG1 in solution

Row | Binder | Kd [3] [nM] | Req [3] [nm shift] | Response [3] [nm] | kobs [3] [s⁻¹] | koff [3] [s⁻¹] | kon [3] [M⁻¹ s⁻¹] | Kd [4] [nM] | binding result [6] | also measured
1 | AB-1 full-length IgG1 (antibody, V domains shown) VH: QMQLVQSGTEVKKPGESLKISCKGSGYGFITVWIGWVRQMPGKGLEWMGIIYPGDSETRYSPSFQGQVTISADKSINTAYLQWSSLKASDTAIYYCAGGSGISTPMDVWGQGTTVTVSS VL: not shown | 3.3 | 0.98 | 1.06 | 0.023 | 0.00074 | 220000 | 14.6 | – | Kd [1]: 9.5 nM; koff [1]: 0.0091 s⁻¹; kon [1]: 960000 M⁻¹ s⁻¹; Neutralization (ng/mL), Authentic Virus IC50 [2]: 14200 ng/mL; Neutralization (ng/mL), Authentic Virus IC80 [2]: 25000 ng/mL; Neutralization (ng/mL), Pseudovirus IC50 [2]: 142 ng/mL; Kd [5]: 9.5 nM
2 | AB-2 full-length IgG1 (antibody, V domains shown) VH: QMQLVQSGTEVKKPGESLKISCKGSGSGTITVWIGWVRQMPGKGLEWMGIIYPGDSETRYSPSFQGQVTISADKSINTAYLQWSSLKASDTAIYYCAGGSGISTPMDVWGQGTTVTVSS VL: not shown | – | – | – | – | – | – | 84.9 | – | Neutralization (ng/mL), Authentic Virus IC50 [2]: 25000 ng/mL; Neutralization (ng/mL), Authentic Virus IC80 [2]: 25000 ng/mL; Neutralization (ng/mL), Pseudovirus IC50 [2]: 324 ng/mL
3 | AB-12 IgG1 (antibody, V domains shown) VH: EVQLVQSGAEVKKPGESLKISCKGSGSGFITVWISWVRQMPGKGLEWMGIIYPGDSETRYSPSFQGQVTISADKSISTAYLQWSSLKASDTAMYYCAGGSGISTPMDVWGQGTTVTVSS VL: not shown | – | – | – | – | – | – | – | binds | –
4 | AB-11 IgG1 (antibody, V domains shown) VH: EVQLVQSGAEVKKPGESLKISCKGSGSGFITVWIGWVRQMPGKGLEWMGIIYPGDSETRYSPSFEGQVTISADKSISTAYLQWSSLKASDTAMYYCAGGSGISTPMDVWGQGTTVTVSS VL: not shown | – | – | – | – | – | – | – | binds | –
5 | AB-5 full-length IgG1 (antibody, V domains shown) VH: QMQLVQSGTEVKKPGESLKISCKGSGSGFITYWIGWVRQMPGKGLEWMGIIYPGDSETRYSPSFQGQVTISADKSINTAYLQWSSLKASDTAIYYCAGGSGIYTPMDVWGQGTTVTVSS VL: not shown | 0.3 | 1.8 | 1.84 | 0.012 | 3.6e-05 | 120000 | – | – | –
6 | AB-8 IgG1 (antibody, V domains shown) VH: EVQLVQSGAEVKKPGESLKISCKGSGSGFITVWIGWVRQMPGKGLEWMGIIYPGDSETRYNQSFKGQVTISADKSISTAYLQWSSLKASDTAMYYCAGGSGISTPMDVWGQGTMVTVSS VL: not shown | – | – | – | – | – | – | – | binds | –
7 | AB-13 IgG1 (antibody, V domains shown) VH: EVQLVQSGAEVKKPGESLKISCKGSGSGFITVWIGWVRQMPGKGLEWMGIIYPGDSETRYSPSFQGQVTLSADKSISTAYLQWSSLKASDTAMYYCAGGSGISTPMDVWGKGTTVTVSS VL: not shown | – | – | – | – | – | – | – | binds | –
8 | AB-6 full-length IgG1 (antibody, V domains shown) VH: QMQLVQSGTEVKKPGESLKISCKGSGSGLITVWIGWVRQMPGKGLEWMGIIYPGDSETRYSPSFQGQVTISADKSINTAYLQWSSLKASDTAIYYCAGGSGIYTPMDVWGQGTTVTVSS VL: not shown | 0.96 | 0.48 | 0.485 | 0.031 | 0.00029 | 300000 | – | – | –
9 | AB-3 full-length IgG1 (antibody, V domains shown) VH: QMQLVQSGTEVKKPGESLKISCKGSGSGFITVWIGWVRQMPGKGLEWMGIIYPGDSETRYSPSFQGQVTISADKSINTAYLQWSSLKASDTAIYYCAGGSGISTPMDVWGQGTTVTVSS VL: not shown | 4.5 | 1.3 | 1.42 | 0.022 | 0.00096 | 210000 | 38.8 | – | Neutralization (ng/mL), Authentic Virus IC50 [2]: 25000 ng/mL; Neutralization (ng/mL), Authentic Virus IC80 [2]: 25000 ng/mL
10 | AB-7 full-length IgG1 (antibody, V domains shown) VH: QMQLVQSGTEVKKPGESLKISCKGSGSGFITYWIGWVRQMPGKGLEWMGIIYPGDSETRYSPSFQGQVTISADKSINTAYLQWSSLKASDTAIYYCAGGSGIYTPMDVWGQGTTVTVSS VL: not shown | 1.5 | 0.55 | 0.591 | 0.024 | 0.00036 | 230000 | – | – | –
11 | AB-4 full-length IgG1 (antibody, V domains shown) VH: QMQLVQSGTEVKKPGESLKISCKGSGSGFITYWIGWVRQMPGKGLEWMGIIYPGDSETRYSPSFQGQVTISADKSINTAYLQWSSLKASDTAIYYCAGGSGIHTPMDVWGQGTTVTVSS VL: not shown | – | – | – | – | – | – | 36.1 | – | Neutralization (ng/mL), Pseudovirus IC50 [2]: 86.5 ng/mL
12 | AB-9 IgG1 (antibody, V domains shown) VH: EVQLVQSGAEVKKPGESLKISCQGSGSGFITVWIGWVRQMPGKGLEWMGIIYPGDSETRYSPSFQGQVTISADKSISTAYLQWSSLKASDTAMYYCAGGSGISTPMDVWGQGTTVTVSS VL: not shown | – | – | – | – | – | – | – | binds | –
13 | AB-10 IgG1 (antibody, V domains shown) VH: EVQLVQSGAEVKKPGGSLKISCKGSGSGFITVWIGWVRQMPGKGLEWMGIIYPGDSETRYSPSFQGQVTISADKSISTAYLQWSSLKASDTAMYYCAGGSGISTPMDVWGQGTTVTVSS VL: not shown | – | – | – | – | – | – | – | binds | –
